Data on 26 molecules can be found in patent US20250163186A1 (PHYLAXIS BIOSCIENCE, published 2025).

One may read the Kd as the constant that tells how readily two partners part at equilibrium.

B1: hzB10v12-NNT (Fc fusion)
VHH-Fc: EVQLVQSGGELVQAGGSLRLSCVASGLTFSSYNMGWLRQAPGKEREFVGMSGSSSTSTYYADSVKGRFTISRDNSKNTVYLQMNSLKPEDTAVYYCAARRVLSTYWSDRSWDFWGQGTQVTVKPGGPSVFLFPPKPKDTLMISRTPEVTCVVVDVSHEDPEVKFNWYVDGVEVHNAKTKPREEQYNSTYRVVSVLTVLHQDWLNGKEYKCKVSNKALPAPIEKTISKAKGQPREPQVYTLPPSRDELTKNQVNLTCLVKGFYPSDIAVEWESNGQPENNYKTTPPVLDSDGSFFLNSTLTVDKSRWQQGNVFSCSVMHEALHNHYTQKSLSLSPGK
notes: monomeric
B2: hzB10v11-NNT (Fc fusion)
VHH-Fc: B1 VHH-Fc with V101I
notes: monomeric
B3: hzB10v8-NNT (Fc fusion)
VHH-Fc: B1 VHH-Fc with M50I, V101M
notes: monomeric
B4: hzB10v13-NNT (Fc fusion)
VHH-Fc: B1 VHH-Fc with D62E, S75A, V101M, V122A
notes: monomeric
B5: hzB10v10-NNT (Fc fusion)
VHH-Fc: B1 VHH-Fc with V101L, V122A
notes: monomeric
B6: hzB10v9-NNT (Fc fusion)
VHH-Fc: B1 VHH-Fc with M50V, V101M
notes: monomeric
B7: hzB10v4-NNT (Fc fusion)
VHH-Fc: B1 VHH-Fc with D62E, S75A, V79L, N84S, K87R, P88A, V101M
notes: monomeric
B8: hzB10v5-NNT (Fc fusion)
VHH-Fc: B1 VHH-Fc with V101M, K123E
notes: monomeric
B9: hzB10v1-NNT (Fc fusion)
VHH-Fc: B1 VHH-Fc with V5L, Q6E, E10G, A14P, V101M
notes: monomeric
B10: hzB10v2-NNT (Fc fusion)
VHH-Fc: B1 VHH-Fc with L37V, G49S, V101M
notes: monomeric
B11: hzB10v3-NNT (Fc fusion)
VHH-Fc: B1 VHH-Fc with L37V, V101M
notes: monomeric
B12: hzB10v7-NNT (Fc fusion)
VHH-Fc: B1 VHH-Fc with M50L, V101M
notes: monomeric
B13: hzB10v6-NNT (Fc fusion)
VHH-Fc: B1 VHH-Fc with V101M, K123R
notes: monomeric
B14: hzB10v14-NNT (Fc fusion)
VHH-Fc: B1 VHH-Fc with V5L, Q6E, E10G, L11E, A14P, M50L, V101L, K123E
notes: monomeric
B15: hzB10v15-NNT (Fc fusion)
VHH-Fc: B1 VHH-Fc with V5L, Q6E, E10G, L11E, A14P, L37V, G49S, M50L, V101L, K123E
notes: monomeric
B16: hzB10v16-NNT (Fc fusion)
VHH-Fc: B1 VHH-Fc with V5L, Q6E, E10G, L11E, A14P, M50L, D62E, V101L, K123E
notes: monomeric
B17: hzB10v17-NNT (Fc fusion)
VHH-Fc: B1 VHH-Fc with V5L, Q6E, E10G, L11E, A14P, M50L, S63A, V101L, K123E
notes: monomeric
B18: hzB10v20-NNT (Fc fusion)
VHH-Fc: B1 VHH-Fc with V5L, Q6E, E10G, L11E, A14P, M50L, V79L, V101L, K123E
notes: monomeric
B19: hzB10v18-NNT (Fc fusion)
VHH-Fc: B1 VHH-Fc with V5L, Q6E, E10G, L11E, A14P, M50L, S63T, V101L, K123E
notes: monomeric
B20: hzB10v28-NNT (Fc fusion)
VHH-Fc: EVQLLESGGGEVQPGGSLRLSCVASGLTFSSYNMGWLRQAPGKEREFVGLSGSSSTSTYYAESVKGRFTISRDNSKNTVYLQMSSLRAEDTAVYYCAARRLLSTYWSDRSWDFWGQGTQVTVEPGGPSVFLFPPKPKDTLMISRTPEVTCVVVDVSHEDPEVKFNWYVDGVEVHNAKTKPREEQYNSTYRVVSVLTVLHQDWLNGKEYKCKVSNKALPAPIEKTISKAKGQPREPQVYTLPPSRDELTKNQVNLTCLVKGFYPSDIAVEWESNGQPENNYKTTPPVLDSDGSFFLNSTLTVDKSRWQQGNVFSCSVMHEALHNHYTQKSLSLSPGK
notes: monomeric
B21: hzB10v33-NNT (Fc fusion)
VHH-Fc: B20 VHH-Fc with G49S, S84N
notes: monomeric
B22: hzB10v29-NNT (Fc fusion)
VHH-Fc: B20 VHH-Fc with S84Q
notes: monomeric
B23: hzB10v32-NNT (Fc fusion)
VHH-Fc: B20 VHH-Fc with L37V, S84N
notes: monomeric
B24: hzB10v34-NNT (Fc fusion)
VHH-Fc: B20 VHH-Fc with L37V, G49S, S84N
notes: monomeric
B25: hzB10v31-NNT (Fc fusion)
VHH-Fc: B20 VHH-Fc with S84N, S85T
notes: monomeric
B26: hzB10v27-NNT (Fc fusion)
VHH-Fc: B20 VHH-Fc with S84N
notes: monomeric

Changes are numbered by the printed parent chain.

T1 sequence (P01854 other isoform, or with tags, fused parts or gaps): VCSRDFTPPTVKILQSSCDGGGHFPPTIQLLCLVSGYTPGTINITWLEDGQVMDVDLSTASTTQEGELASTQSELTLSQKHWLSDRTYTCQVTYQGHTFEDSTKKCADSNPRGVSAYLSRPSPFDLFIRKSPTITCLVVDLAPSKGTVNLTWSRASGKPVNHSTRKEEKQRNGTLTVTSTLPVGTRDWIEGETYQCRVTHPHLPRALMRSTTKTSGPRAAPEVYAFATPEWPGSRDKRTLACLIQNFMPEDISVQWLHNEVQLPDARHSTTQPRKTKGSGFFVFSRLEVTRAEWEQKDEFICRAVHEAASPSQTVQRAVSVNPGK

One assay addresses T1, CH2-4 constant domains of human IgE linked to a transmembrane protein, on 293 cells (human, UniProt P01854-1 104-428).
T1 construct: domain: CH2-4 constant domains; also called human IgE-expressing 293 cells
Briefly: flow cytometry, 293 cells expressing human IgE CH2-4. As for the experimental part:
(§1) First, 25 μg of DNA was added to Opti-MEM Reduced Serum Medium (Gibco) mixed with 75 μL of 40 kDa Polyethylenimine (PEI) for a final concentration of 1 μg DNA and 2.5 μg PEI per mL of culture volume. The plasmid DNA was allowed to pre-complex with PEI for 15 minutes before transferring the mixture to 25 mL of 293 cells in a shake flask at a density of 2×10⁶ cells/mL. […] Next, 50 μL of cells were transferred to wells of a round-bottom 96-well assay plate for a total of 50,000 293 cells per well. In a separate 96-well plate, monomeric VHH-hIgG1-Fc fusion proteins were titrated 1:5 in a 8-point dilution series starting at 1 μM in FACS Buffer with the 8th point containing no antibody. 50 μL from each antibody dilution was added to wells containing 50 μL of FACS Buffer with transfected 293 cells which produced a 2-fold dilution of the antibody concentrations from the dilution series resulting in a 500 nM final, starting concentration of the test article titration. The test articles and 293 cells were incubated together at 4° C. for 30 minutes. Next, the 96-well plates were centrifuged at 400×g for 5 minutes and the FACS buffer containing unbound antibody was decanted. Cells were washed 1× with 150 μL 4° C. FACS Buffer. […] The cells were incubated with the fluorophore conjugated detection antibody at 4° C. for 20 minutes. 293 cells were then centrifuged and washed once as described above. Cell pellets were resuspended in 30 μL FACS Buffer and analyzed on an iQue Screener Plus flow cytometer (Sartorius, IntelliCyt) with a 1 second sip time and 1 second void time. Mean fluorescent intensity was calculated using iQue onboard software gating on GFP+ or citrine+ cells.
(Flow cytometry measures light scatter and fluorescence of single cells or particles in a stream.)
In turn, B1 showed a Bmax of 2.72e+06 MFI and a Kd of 2.37 nM. The molecule B2 returned a Bmax of 3.41e+06 MFI and a Kd of 15.6 nM. The corresponding values for B3 are 2.75e+06 MFI and 2.74 nM.

With B4, the Bmax came out at 2.82e+06 MFI and the equilibrium dissociation constant (Kd) worked out at 3.49 nM. On the same counts, the results for B5 are 2.76e+06 MFI and 1.19 nM. The corresponding values for B6 are 2.83e+06 MFI and 2.82 nM.

Another assay concerns the target T1, CH2-4 constant domains of human IgE …. The assay is described as above. This is another data set of the same source. As for the experimental part:
as §1
Take B7: the Bmax stood at 3.89e+06 MFI and binding was characterised by a dissociation constant (Kd) of 75 nM. In turn, B8 displayed a Kd of 2.5 nM.

The molecule B9 displayed a Kd of 1.37 nM. In turn, B10 registered a Bmax of 2.46e+06 MFI and a Kd of 1.81 nM. B11 registered a Bmax of 1.69e+06 MFI and a Kd of 342 nM. For B12, the Bmax turned out to be 3.34e+06 MFI and binding was put at a Kd of 3.71 nM.

In the case of B13, binding was characterised by a dissociation constant (Kd) of 1.95 nM. For the molecule B14, the Bmax came out at 1.95e+06 MFI and binding was put at a Kd of 2.11 nM. On the same counts, the results for B15 are 1.89e+06 MFI and 10 nM.

The molecule B16 had a Bmax of 2.23e+06 MFI and a Kd of 1.89 nM. The corresponding values for B17 are 2.07e+06 MFI and 1.7 nM. The corresponding values for B18 are 2.24e+06 MFI and 6.01 nM.

In turn, B19 gave a Bmax of 1.95e+06 MFI and a Kd of 5.07 nM.

The next assay has the same target. Described as above. The source holds these as a separate data set. As for the experimental part: as §1
With B20, the Bmax worked out at 1.12e+08 MFI and the affinity, expressed as Kd, was 7070 nM.

In the case of B21, the Bmax was determined as 617000 MFI and binding was put at a Kd of 1.94 nM.

B22 showed a Bmax of 605000 MFI and a Kd of 2.31 nM.

In turn, B23 came in with a Bmax of 706000 MFI and a Kd of 1.33 nM. Turning to B24, the Bmax was 375000 MFI and the Kd was 0.55 nM. The molecule B25 had a Bmax of 575000 MFI and a Kd of 0.978 nM.

With B26, the Bmax came to 753000 MFI and the Kd stood at 1.16 nM.
